Measured values from the RNAGym collection of RNA variant scans (doi:10.7554/elife.90254).

B1: LINE1-full (parent)
chain: UACGUAGGUGGUUUUCCCCUGAUAGUGCUAAGGGGGCCUGGAAGUUUGGACUGGGCAGAGCUCAACACAGCGUGGCAAAGUGGCUGUGGCUAGACUGCCUCUCUGGAUUCCUCGUCACUCAGCAGGGCAUCUCUGAGAGAAAUGCC

Variants of: B1
Assay: self-cleavage, relative activity (ratio to wild type); higher = more cleavage; in vitro, sequencing; the parent is a self-cleaving ribozyme

Variant | self-cleavage
U9C U87G | 0.69
U9C U87C | 0.42
G40A A78G | 0.77
U14G A136G | 1.16
C38U U85C | 0.15
A24G U112C | 1.41
G11U U130C | 1
U91C A124U | 0
U5A A50G | 0.78
G74C | 1.6
A31G U39A | 0.49
G72A U108C | 1.54
U13G U115G | 1.43
U29C A92G | 0.21
A2U U12A | 0.31
U46C G55A | 0.59
U81G U134A | 1
U45A G139A | 1.33
U73A U85C | 0.1
G27A A140U | 1.28
U73C A140G | 1.63
U96C U115G | 0.21
A59U G60A | 0.05
U96C U100A | 0.08

Variant | self-cleavage
A69G A107G | 0.37
U100C U115A | 1.87
U52C U119A | 1.16
G139A A142G | 1.15
G35A A142G | 1.14
A42U U109A | 1.39
A59G A79U | 0.07
U46C U73G | 1.65
U1C U104A | 0.75
U9A C37U | 0.63
G54A A141G | 0.8
C63U A77G | 0.62
A24G U47C | 1.05
U108A A142G | 1.55
A65G G135A | 0.1
U87A A124G | 0.07
U52G A69U | 0.1
U20C G75A | 1.16
A31U | 1.03
U108C G135A | 1.6
A24U G35U | 0.67
U46C U108G | 1.15
A140G G144U | 1.05
C90U U108C | 0.03

Variant | self-cleavage
U26G G27A | 1.01
U102A A124U | 1.46
A22U A57G | 0.84
A78U U134A | 2.08
U5A U130C | 0.96
U39C U104G | 0.93
A50U A94U | 0.27
G34U U47G | 1.04
U12C U39C | 1.4
U15A A77U | 0.98
U15C | 1.42
A94U U100C | 0.33
A42U U100C | 1.32
G122A A142G | 0.42
U45C U104C | 1.42
G21A A124G | 0.9
U47A G82A | 2.27
A6G A57U | 0.42
A57U C84A | 0.21
G49A A77U | 0.86
U52A C116U | 1.18
A24C A65U | 0
U9C A59U | 0.72
U87A U132C | 0.07

Variant | self-cleavage
U39C A117C | 1.84
G21A A67C | 0.02
U96C A142G | 0.13
U29C A121U | 1.5
A65G A129C | 0.02
U1C C68U | 0.13
U14C U91G | 0.24
U119G U134C | 1.76
U12G G97U | 0.07
A67U U73C | 0.18
U73A U130C | 1.82
C146U | 1.29
A22G U132A | 0.48
G36A U115C | 1.53
U12C U29A | 1.16
G114U A140G | 0.91
U73G U134C | 1.57
A121U G122A | 0.27
A77G A129U | 2
U45A U96C | 0.13
A136U U143A | 1.41
U26A C103U | 0.98
C68U G74A | 0.2
C68U U108C | 0.32

Variant | self-cleavage
U100C | 1.79
A30U A141G | 0.87
C63A A124U | 0.03
A22G U112A | 1.84
U45A U81C | 1.92
U5C U47C | 0.67
U81C C116A | 0.59
G41C U45C | 0.68
A22G G137A | 1.52
U109A A124U | 1.61
A30U A31U | 1.3
G86A A117G | 0.09
U46A U134C | 1.84
U81A A138G | 2.16
A69G C145U | 0.55
G40U U132A | 1.31
A64C A129U | 0.14
U15C U115G | 1.07
U9A U20A | 1.41
U15C A22G | 1.24
A59G U87A | 0.06
U20C A138U | 1.42
U1C A59U | 0.56
U1C A59G | 0.1

Variant | self-cleavage
A65G U100C | 0.06
G4A U20C | 1.2
G114A G127C | 1.34
U91A U130G | 1.24
U81A U112A | 1.7
C61U U73C | 0.02
G21A U132C | 1.63
A67C U119C | 0.09
U9G A79G | 0.63
C28A A78G | 0.61
A64C U104A | 0.28
A78G G106U | 0.66
U15C C17U | 1.03
G82A U132C | 2.22
C66U G75A | 0.04
G114A A129G | 1.26
C28A G32C | 0.96
A124G U132C | 0.82
C38U C101U | 1.82
G105A G114A | 0.75
A67C G135U | 0.05
U47C C113A | 1.78
U39C U46C | 1.56
G40A A136U | 1.04

Variant | self-cleavage
C3U U45A | 0.93
G4U U20C | 1.33
G25U U39A | 0.31
C68A U87A | 0.01
C68A A69G | 0.07
A50G C68U | 0.1
C16U A141G | 1.13
A59U A94G | 1.71
U73G A92G | 0.36
U12G G32A | 0.78
U52C U62A | 0.08
G70A U85G | 0.01
U29A A94G | 0.54
U1C A64U | 0.29
A65G A107G | 0.03
U73C G97A | 0.41
A2G A42U | 0.69
A42C A107U | 1.04
U39C C71U | 0.31
A136C C145A | 1.72
G34U U62C | 0.02
G25C A140G | 2.41
A6G U119C | 0.73
G72U A107C | 2.15

Variant | self-cleavage
G36C A57G | 0.9
C19G A31G | 0.73
C3U G8C | 0.53
A117C U134A | 1.53
U47C G127A | 1.31
U62A A79G | 0.04
G35A U143C | 1.04
C3U A77U | 0
U12C U47A | 0.71
G25A | 1.21
U5C G48A | 0.45
A117U U143C | 1.43
A2G U143C | 1.2
U9A G32A | 1.73
U13A G125U | 1.03
U115G A140G | 2
A69U C131A | 0.07
U20G U39C | 0.98
U96C A136C | 0
A22G U73C | 1.37
G4A A42U | 0.78
U13G A92G | 0
U15A A50U | 1.43
A30G A129G | 0.72

Variant | self-cleavage
A6U U85C | 0.4
C123U G125C | 1.1
A59G U143G | 0.03
A43G A67U | 0.06
A117G A142G | 1.25
U46C U130A | 1.68
A79U U87A | 0.05
C37U G54U | 0.41
A65U U115C | 0.26
A6U U73C | 1.21
U12C U20C | 1.24
A69G U115A | 0.25
G135A C145U | 1.46
C56U A117C | 0.5
C37G U115C | 1.44
C3G U52A | 0.8
G21U U81C | 1.01
U62A U96A | 0.04
A67C A78U | 0.07
U12A A140G | 1.51
C71U C146U | 0.66
U13C C103A | 1
U26G U119C | 0.98
U1A A2G | 1.2

Variant | self-cleavage
A6G U134C | 0.85
A64U C123U | 0.41
U45C U143A | 1.39
A22G A67G | 0.63
A117U C128A | 0.99
A94G G127U | 0.09
U20C U85C | 0.38
U112A A129U | 1.8
G7A U47C | 1.21
A24G A141U | 1.41
A6G C98U | 0.42
A6G A94U | 0.3
A136U C146U | 1.58
U12C C145G | 1.06
C17U U81A | 1.53
A64G G74A | 0.12
C101U A121G | 1.72
A57G U134C | 0.93
A31U A59U | 0.39
U1C U73C | 1.04
U15G G44U | 0.96
G8U A50G | 1.19
U87A G106C | 0.08
U104A U115C | 1.42

Variant | self-cleavage
G32U U91G | 0.1
G48U U85A | 0.1
C38A A64G | 0.18
A121U U132A | 1.36
A65G C116U | 0.05
U20C A24G | 1.11
U91C G114A | 0.57
C71G A124G | 0.25
U12C C101U | 1.02
A65G A141C | 0.38
U52C U132C | 1.75
U29A C51A | 1.65
A77G U85C | 0.25
A69C U119A | 0.04
A43G G48U | 1.28
U26A A31G | 0.81
A69G A78U | 0.63
U5A A78U | 1.89
U81G A140G | 1.4
G33U U73A | 1.38
U91A A141G | 0.51
U62C U81C | 0.05
U12G G80A | 1.64
C3U C118U | 1.25

Variant | self-cleavage
U12G C116U | 0.62
G34A C146A | 1.39
U73C A79G | 1.79
U109G U119C | 0.49
C68U G88A | 0.05
G80U G144A | 1.57
U47G U85C | 0.33
U13C U96G | 0.06
G34C A138G | 2.05
G53A A69U | 0.07
U47C A121G | 1.92
U100C U104C | 2.14
C110A A138G | 0.95
U1C U119C | 0.78
C98U U100G | 0.05
A6U U47C | 0.8
U12C A59U | 0.13
G41A U87C | 0.26
U9G A140G | 0
U9G U134C | 0.71
U46A A124G | 0.8
A22G A69U | 0.14
U5A U15C | 0.94
U15A U102C | 1.15

Variant | self-cleavage
A129U A138G | 0.93
U1A C37G | 0.74
A57G A69U | 0.07
U15A U112C | 1.51
G25A A69G | 0.41
U20A U109C | 1.25
A77U A117G | 1.6
U9C U29A | 1.1
G33U A136U | 1.27
U96C U143C | 0.14
G11A U13C | 0.51
U45C A136U | 1.49
U39G U45C | 1.82
U46A U62C | 0.05
G55U G144A | 0.43
A67U C131A | 0.13
U62C A94U | 0.08
U39C G135A | 1.2
U9G U52G | 1.05
A65C A79G | 0
U23G U87A | 0.11
U13A G126U | 1.86
G40U U47A | 1.86
C71G | 0.27

Variant | self-cleavage
A6U G105U | 1.71
U87G A117C | 0.31
G4U C110A | 1.56
C113U A142G | 0.91
C3G A69U | 0.11
U12C C111U | 1.74
G33A U108C | 1.47
C63A U119C | 0.02
A67G A140U | 0.56
U13C A136U | 1.18
A78C | 2.41
U46A A141G | 1.36
G41C U100C | 2.63
G34C U115C | 1.82
C99G A129G | 0.3
A92U U102A | 0.79
U104C U112A | 1.8
G54A A78U | 0.79
A6U U12G | 1.21
A31U U115C | 1.32
U45A G74U | 1.59
C110U U112A | 1.4
